From paper PMC3605331, “Cloning and characterization of a novel cold-active glycoside hydrolase family 1 enzyme with β-glucosidase, β-fucosidase and β-galactosidase activities” (BMC Biotechnology, 2013)

How the values were obtained:
[1] = tested on: T1, O=[N+]([O-])c1ccc(O[C@@H]2O[C@H](CO)[C@@H](O)[C@H](O)[C@H]2O)cc1; assay: purified protein; format: biochemical, uncultured bacterium; conditions: 20 mM phosphate buffer, 20°C, substrate 1.0-5.0 mM
T1 construct: E. coli LMG194; monomer

[2] = tested on: T2, O=[N+]([O-])c1ccccc1O[C@@H]1O[C@H](CO)[C@H](O)[C@H](O)[C@H]1O; assay: purified protein; format: biochemical, uncultured bacterium; conditions: 20 mM phosphate buffer, 20°C, substrate 1.0-5.0 mM
T2 construct: E. coli LMG194; monomer

BglMKg (uncultured bacterium)
Km [1]: 0.16 ± 0.03 mM | kcat [1]: 11.7 ± 0.26 s⁻¹ | kcat/Km [1]: 73400 M⁻¹ s⁻¹ | Km [2]: 9.04 ± 1.39 mM | kcat [2]: 12.4 ± 1.35 s⁻¹ | kcat/Km [2]: 1370 M⁻¹ s⁻¹
